Results from paper PMC9126983, “Structural insights into the mechanism of archaellar rotational switching” (Nature Communications, 2022).
Where “and” joins values, the source holds several entries; their conditions need not be identical. Equal values may be shown once.

B2: GST-MmCheFCTD (domain or fragment)
chain: IKSLLPKSEDDLDSEMAVESWSGDKLKNEVEQLAPEEQEILTAIYTGITSLELPGMMGMDIDEVEKVLEKLIDQGFLDLVRIRKETDLTEKGRAVTNFIITNF
B3: Methanococcus maripaludis CheY, activated with BeF3- (phosphorylated state mimicked) (natural protein, UniProt Q6LYQ5 1-123, looked up)
chain: MASIVKTMIVDDSAFMRNILKRILSTTNKYVVIGEAANGADAIKMAEELQPDLISMDIVMPETDGITATKAIKEKTPEIKIVMCTSVDQEQKMIDAVNAGADGYIVKPFQAPKILEQFNKLFP
modifications: BeF3- phosphomimic (2 mM BeF2 and 20 mM NaF in the buffer); phosphorylation site D57
notes: CheY of Methanococcus maripaludis; The same protein as m10, in buffer with 2 mM BeF2, 20 mM NaF and 20 mM MgCl2; also called CheY-P; source: E. coli BL21 (DE3), purified (Ni-NTA, SEC)

Tests used:
[1] = molecular target: FliM FliMN peptide (UniProt P06974); details: cited from earlier work
[2] = molecular target: Pyrococcus horikoshii CheF (Pyrococcus horikoshii); test: mass photometry; OneMP mass photometer; protein stocks diluted in HEPES buffer; typical working concentrations of MmCheF 25–50 nM
[3] = molecular target: Thermococcus kodakarensis CheF (Thermococcus kodakarensis); test: as above
[4] = molecular target: Methanococcus maripaludis CheF (Methanococcus maripaludis); test: as above
[5] = molecular target: FliM 1-249 (Thermotoga maritima) (UniProt Q9WZE6); details: cited from earlier work
Sequence of FliM 1-249 (Thermotoga maritima) (Q9WZE6 1-249): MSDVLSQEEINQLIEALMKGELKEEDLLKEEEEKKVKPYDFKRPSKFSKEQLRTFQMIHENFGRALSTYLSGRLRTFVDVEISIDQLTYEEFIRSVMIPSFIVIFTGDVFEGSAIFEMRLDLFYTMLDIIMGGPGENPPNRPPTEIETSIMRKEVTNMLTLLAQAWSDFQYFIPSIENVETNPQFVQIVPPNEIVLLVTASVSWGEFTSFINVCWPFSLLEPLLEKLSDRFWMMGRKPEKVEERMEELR

[6] = molecular target: B2; test: mass photometry; OneMP mass photometer; protein stocks diluted in HEPES buffer; typical working concentrations of MmCheF 25–50 nM; details: both partners purified
[7] = molecular target: B3; test: ITC; GST-MmCheFCTD (25 µM) in the sample cell, titrated with MmCheY; 25 °C; 20 mM HEPES-Na pH 7.5, 200 mM NaCl, 20 mM KCl, 20 mM MgCl2, 20 mM NaF, 2 mM BeF2; details: both partners purified
[8] = molecular target: B2; test: as above; details: both partners purified

CheY (from UniProt P0AE67)
Kd [1]: 27 µM

Pyrococcus horikoshii CheF (natural protein)
percent of observations in the dimer species [2]: 89% | stoichiometry N [2]: 2

Thermococcus kodakarensis CheF (natural protein)
stoichiometry N [3]: 2

Methanococcus maripaludis CheF (natural protein)
stoichiometry N [4]: 2

CheY (from UniProt Q56312)
Kd [5]: 0.039 µM

B1: GST-MmCheFCTD (domain or fragment)
chain: IKSLLPKSEDDLDSEMAVESWSGDKLKNEVEQLAPEEQEILTAIYTGITSLELPGMMGMDIDEVEKVLEKLIDQGFLDLVRIRKETDLTEKGRAVTNFIITNF
modifications: GST carrier left out; limits taken as the C-terminal 103 residues (246-348, F348 terminal) used in the CheY:CheFCTD fusion, exact limits are in Fig. S3a; fusion is mainly a dimer by mass photometry /
stoichiometry N [6]: 2 and 4

B2
Kd [7]: 1.24 ± 0.414 µM

B3
stoichiometry N [8]: 1
